What is called stoichiometry N is a count of units in the complex or per binding partner.

Data on three compounds can be found in paper PMC10945777 (Proceedings of the National Academy of Sciences of the …, 2024).

The target of test [1] is NrtBCD (nitrate site in NrtB dimer) (Nostoc sp. PCC 7120 = FACHB-418, UniProt A0ACD6B946). Nature of the test: colorimetric ATPase assay. In kind it is biochemical. Conditions: 2 mM MgCl2, 50 mM Tris-HCl pH 8.0, 150 mM NaCl, 0.02% GDN, 37 °C.
In test [2] the target is NrtB of Anabaena sp. PCC 7120 (transmembrane subunit, as it stands in NrtBCD) (Anabaena sp. PCC 7120). Nature of the test: cryo-EM structure.
The target in test [3] is signaling protein PII of Anabaena sp. PCC 7120 (Anabaena sp. PCC 7120). Put plainly: cryo-EM structure.

For the compound `O=[N+]([O-])O` [nitrate], the “fold stimulation of ATPase activity at 8 mM” value in test [1] is reported as ~ 2.5 fold. On to “NrtB of Anabaena sp. PCC 7120 (transmembrane subunit, as it stands in NrtBCD) (natural protein)”, for which the stoichiometry N in test [2] was determined as 2.

“signaling protein PII of Anabaena sp. PCC 7120 (natural protein)” came in with a stoichiometry N in test [3] of 3.
